Experimental data as given in article PMC5454392, “Selective BET bromodomain inhibition as an antifungal therapeutic strategy” (Nature Communications, 2017).
Where two headings read alike, the source gives them in different places.

Legend:
CaBdf1 BD1 Y248F = molecular target: T1, CaBdf1 BD1 Y248F (Candida albicans, UniProt Q5A4W8, Y248F); assay: Histone peptide microarray binding, YF mutant;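 for CaBdf1 BD1 Normalized (0 to 100%) YF mutant: normalized to spotted c-myc peptide positive control signal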; set-up: species or system C. albicans; conditions: YF mutant BD1; for CaBdf1 BD1 Normalized (0 to 100%) YF mutant: normalized array signal; for CaBdf1 BD1 Raw data YF mutant: peptide array signal
T1 construct: made in house; host or cells: E. coli BL21(DE3), inferred from the wild-type GST construct
Experimental: (§1) In short, arrays were blocked and incubated with 1 μM of purified CaBdf1 BD1 or BD2. Arrays were incubated with recombinant BDs for 2 h at 4 °C in binding buffer (Tris-HCl 50 mM pH 7.4, NP-40 0.1%, NaCl 150 mM, glycerol 10%). […] Assays were performed in duplicate. Images were acquired on a Bio-Rad ChemiDoc XRS Imaging machine and data were quantified using the array analyser software provided by Active Motif.

CaBdf1 BD2 Y425F = molecular target: T2, CaBdf1 BD2 Y425F (Candida albicans, UniProt Q5A4W8, Y425F); assay: Histone peptide microarray binding, YF mutant;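 for CaBdf1 BD2 Normalized (0 to 100%) YF mutant: normalized to spotted c-myc peptide positive control signal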; set-up: species or system C. albicans; conditions: YF mutant BD2; for CaBdf1 BD2 Normalized (0 to 100%) YF mutant: normalized array signal; for CaBdf1 BD2 Raw data YF mutant: peptide array signal
T2 construct: made in house; host or cells: E. coli BL21(DE3), inferred from the wild-type GST construct
Experimental: as §1

CaBdf1 BD1 = molecular target: T3, CaBdf1 BD1 (Candida albicans, UniProt Q5A4W8); assay type: binding; conditions: wild-type BD1; for CaBdf1 BD1 Normalized (0 to 100%) WT: normalized array signal; for CaBdf1 BD1 Raw data WT: peptide array signal;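 for CaBdf1 BD1 Normalized (0 to 100%) WT: normalized to spotted c-myc peptide positive control signal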
T3 construct: made in house; host or cells: E. coli BL21(DE3)
T3 sequence (Q5A4W8 whole entry, looked up): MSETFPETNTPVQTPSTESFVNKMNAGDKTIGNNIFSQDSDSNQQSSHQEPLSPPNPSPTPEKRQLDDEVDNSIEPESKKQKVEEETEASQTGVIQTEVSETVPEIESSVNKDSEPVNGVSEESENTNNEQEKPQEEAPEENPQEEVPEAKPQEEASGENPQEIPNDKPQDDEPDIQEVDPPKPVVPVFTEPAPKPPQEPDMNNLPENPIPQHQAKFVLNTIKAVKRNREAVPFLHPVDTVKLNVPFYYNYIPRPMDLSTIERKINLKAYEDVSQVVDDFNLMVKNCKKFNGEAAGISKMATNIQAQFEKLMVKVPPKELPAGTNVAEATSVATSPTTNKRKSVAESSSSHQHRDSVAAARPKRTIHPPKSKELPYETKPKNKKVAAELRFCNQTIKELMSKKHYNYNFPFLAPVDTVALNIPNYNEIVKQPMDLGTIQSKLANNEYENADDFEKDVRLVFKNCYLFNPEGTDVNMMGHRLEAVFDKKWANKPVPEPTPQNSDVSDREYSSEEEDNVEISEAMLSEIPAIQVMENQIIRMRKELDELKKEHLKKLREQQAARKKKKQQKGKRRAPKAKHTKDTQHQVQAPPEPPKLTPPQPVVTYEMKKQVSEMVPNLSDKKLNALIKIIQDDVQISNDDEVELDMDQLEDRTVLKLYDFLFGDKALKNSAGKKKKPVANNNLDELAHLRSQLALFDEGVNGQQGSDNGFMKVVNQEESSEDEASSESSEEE
Experimental: (§2) In short, arrays were blocked and incubated with 1 μM of purified CaBdf1 BD1 or BD2. Arrays were incubated with recombinant BDs for 2 h at 4 °C in binding buffer (Tris-HCl 50 mM pH 7.4, NP-40 0.1%, NaCl 150 mM, glycerol 10%). […] Assays were performed in duplicate.

CaBdf1 BD2 = molecular target: T4, CaBdf1 BD2 (Candida albicans, UniProt Q5A4W8); assay type: binding; conditions: wild-type BD2; for CaBdf1 BD2 Normalized (0 to 100%) WT: normalized array signal; for CaBdf1 BD2 Raw data WT: peptide array signal;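 for CaBdf1 BD2 Normalized (0 to 100%) WT: normalized to spotted c-myc peptide positive control signal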
T4 construct: made in house; host or cells: E. coli BL21(DE3)
T4 sequence (Q5A4W8 whole entry, looked up): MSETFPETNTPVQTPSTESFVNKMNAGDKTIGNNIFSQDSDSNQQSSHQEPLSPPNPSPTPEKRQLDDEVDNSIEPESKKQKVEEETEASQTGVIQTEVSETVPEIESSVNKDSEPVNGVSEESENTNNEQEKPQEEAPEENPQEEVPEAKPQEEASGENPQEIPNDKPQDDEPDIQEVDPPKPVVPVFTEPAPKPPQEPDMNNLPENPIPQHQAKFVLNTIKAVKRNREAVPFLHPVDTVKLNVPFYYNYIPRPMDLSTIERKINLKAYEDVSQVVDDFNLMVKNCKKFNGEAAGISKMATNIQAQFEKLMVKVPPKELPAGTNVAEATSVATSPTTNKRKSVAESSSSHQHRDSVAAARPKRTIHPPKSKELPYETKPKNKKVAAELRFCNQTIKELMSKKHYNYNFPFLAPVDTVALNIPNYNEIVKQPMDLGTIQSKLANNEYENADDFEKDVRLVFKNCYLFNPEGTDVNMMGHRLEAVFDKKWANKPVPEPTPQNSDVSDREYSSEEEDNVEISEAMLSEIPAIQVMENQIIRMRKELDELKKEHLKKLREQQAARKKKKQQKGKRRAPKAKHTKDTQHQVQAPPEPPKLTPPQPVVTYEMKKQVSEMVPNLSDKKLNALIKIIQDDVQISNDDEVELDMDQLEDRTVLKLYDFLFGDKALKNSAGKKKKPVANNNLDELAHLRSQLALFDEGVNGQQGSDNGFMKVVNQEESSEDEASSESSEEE
Experimental: as §2

T2 sequence (Q5A4W8 361-501 Y425F): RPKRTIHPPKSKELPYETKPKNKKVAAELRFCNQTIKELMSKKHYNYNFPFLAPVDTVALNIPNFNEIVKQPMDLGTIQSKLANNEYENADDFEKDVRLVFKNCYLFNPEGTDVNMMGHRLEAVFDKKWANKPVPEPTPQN
T1 sequence (Q5A4W8 193-327 Y248F): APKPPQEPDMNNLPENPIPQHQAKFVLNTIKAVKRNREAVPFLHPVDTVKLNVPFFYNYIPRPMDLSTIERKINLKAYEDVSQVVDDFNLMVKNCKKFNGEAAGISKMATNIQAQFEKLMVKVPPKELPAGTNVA

Row | Sequence | CaBdf1 BD1 Normalized (0 to 100%) YF mutant (CaBdf1 BD1 Y248F) | CaBdf1 BD1 Raw data YF mutant (CaBdf1 BD1 Y248F; first of two raw-data columns) | CaBdf1 BD1 Raw data YF mutant (CaBdf1 BD1 Y248F) | CaBdf1 BD2 Normalized (0 to 100%) YF mutant (CaBdf1 BD2 Y425F) | CaBdf1 BD2 Raw data YF mutant (CaBdf1 BD2 Y425F; first of two raw-data columns) | CaBdf1 BD2 Raw data YF mutant (CaBdf1 BD2 Y425F) | CaBdf1 BD1 Normalized (0 to 100%) WT (CaBdf1 BD1) | CaBdf1 BD1 Raw data WT (CaBdf1 BD1; first of two raw-data columns) | CaBdf1 BD1 Raw data WT (CaBdf1 BD1) | CaBdf1 BD2 Normalized (0 to 100%) WT (CaBdf1 BD2) | CaBdf1 BD2 Raw data WT (CaBdf1 BD2; first of two raw-data columns) | CaBdf1 BD2 Raw data WT (CaBdf1 BD2)
1 | A Rme2a T Kme2 Q T A R Kme2 S T G G K A P R K Q | 0.727% | 0.007202 | 0.002401 | 0.0977% | 0.0009709 | 0.002427 | 0.399% | 0.00481 | 0.00481 | 0.222% | 0.0151 | 0.0006863
2 | A Rme2a T Kme2 Q T A Rme2a K S T G G K A P R K Q | 0.727% | 0.007202 | 0.003086 | 0.293% |  | 0.002427 | 0.508% | 0.007483 | 0.003741 | 0.444% |  | 0.01098
3 | A Rme2a T Kme3 Q T A R Kac S T G G K A P R K Q | 0.554% | 0.005487 | 0.004801 | 0.244% | 0.002427 | 0.002427 | 3.44% | 0.01924 | 0.03528 | 0.518% | 0.006177 | 0.0151
4 | A Rme2a T Kme3 Q T A R Kme2 S T G G K A P R K Q | 0.554% | 0.005487 | 0.006859 | 0.244% | 0.002427 | 0.003398 | 0.145% | 0.002672 | 0.003207 | 0.296% | 0.01579 | 0.001373
5 | A Rme2a T Kme3 Q T A Rme2a K S T G G K A P R K Q | 0.658% | 0.006516 | 0.004801 | 0.293% |  | 0.002427 | 0.363% | 0.004276 | 0.00481 | 0.444% | 0.01098 | 
6 | A Rme2s T Kac Q T A R Kme1 S T G G K A P R K Q | 0.727% | 0.007202 | 0.002743 | 0.244% | 0.002427 | 0.002427 | 0.798% | 0.009621 | 0.005879 | 0.333% | 0.01304 | 0.004804
7 | A Rme2s T Kac Q T A R Kme3 S T G G K A P R K Q | 0.727% | 0.007202 | 0.004458 | 0.293% |  |  | 0.616% | 0.005879 | 0.006948 | 0.259% | 0.01579 | 0.0006863
8 | A Rme2s T Kac Q T A Rme2s K S T G G K A P R K Q | 0.485% | 0.004801 | 0.003086 | 0.293% |  | 0.003398 | 0.363% | 0.003741 | 0.005345 | 0.518% |  | 0.01235
